This is an account of results in paper PMC11543927, “Subtleties in Clathrin heavy chain binding boxes provide selectivity among adaptor proteins of budding yeast” (Nature Communications, 2024).

T1: ScChc-NTD (Saccharomyces cerevisiae, UniProt P22137)
T1 construct: N-terminal domain (ScChc-NTD, 1–369) was cloned in a pETM-30 vector; His-GST (TEV site); made in house; host or cells: E. coli BL21 (DE3)
T1 sequence (P22137 1-369): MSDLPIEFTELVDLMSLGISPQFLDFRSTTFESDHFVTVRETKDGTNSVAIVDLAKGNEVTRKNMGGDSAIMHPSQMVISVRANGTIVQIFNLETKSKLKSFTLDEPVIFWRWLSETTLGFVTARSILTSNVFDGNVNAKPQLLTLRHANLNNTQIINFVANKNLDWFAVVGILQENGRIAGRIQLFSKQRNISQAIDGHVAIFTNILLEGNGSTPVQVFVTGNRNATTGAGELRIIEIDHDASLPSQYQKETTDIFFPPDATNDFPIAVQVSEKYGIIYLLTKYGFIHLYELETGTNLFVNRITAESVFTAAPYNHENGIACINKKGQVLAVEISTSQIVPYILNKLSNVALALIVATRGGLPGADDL

B1: Apl2.1 CBM peptide (SQDLLDLF) (peptide)
peptide: SQDLLDLF
notes: also called LLDLF peptide; source: synthetic peptide, bought: NovoProLabs
B2: Yap1801 CBM peptide (NLNLIDM) (peptide)
peptide: NLNLIDM
notes: source: synthetic peptide, bought: NovoProLabs
B3: Ent2 endogenously tagged with mNeonGreen (Ent2-mNeonGreen) (natural protein, UniProt Q05785 1-613, looked up)
chain: MSKQFVRSAKNMMKGYSSTQVLVRDATANDSRTPSIDTLDDLAQRSYDSVDFFEIMDMLDKRLNDKGKYWRHVAKSLTVLDYLVRFGSENCVLWCRENFYVIKTLREFRHENESGFDEGQIIRVKAKELVSLLNDEERLREERSMNTRNRRANRAARPRPRRQRTRSNPHDSSPSYQDDLEKALEESRITAQEDEQRRRELAQYDDEDPDFQAALQLSKEEEELKQLQELQRLQKQQQSLSQFQAPLQQQQPQQQPAYYDIFGNPISQDEYLQYQYQQDQEQAMAQQRWLDQQQEQQQLAEQQYFQQQQQAAAAASALQQQQTAANMQQQQQQPADFQQPLPTGSNNPFSMDNLERQKQEQQHAQLQRQQEEARQQQEQLKLQQLQRQQQEEAQLHQKRQEEAQLQQQQAQLLQQQAQFQQQQPLKQTRTGNQSISDKYSDLNTLLATGTGIDTFGNTGEARIPAQHTKTGTFINSQGTGYKQVTNEPKNNPFLSNQYTGLPSTNIVPTQTGYGFGNQPQSPPTNSPQQNPTGISYSQPQQQQQPQQQPQYMQNFQQQQPQYAQNFQQQPQYTQNYQQQPQYIQPHQQQQQQQQQQQQQQGYTPDQGVSLIDL
notes: epsin Ent2, Saccharomyces cerevisiae, endogenous locus tagged with mNeonGreen; also called Ent2-WT-mNeonGreen; Ent2p; source: endogenously tagged, S. cerevisiae MK100, in living cells
B4: Yap1802 CBM peptide (NPNLIDI) (peptide)
peptide: NPNLIDI
notes: as for B2
B5: Ent5.1 CBM peptide (IPDLIDLDD) (peptide)
peptide: IPDLIDLDD
notes: also called Ent5.1 LIDL motif; LIDL peptide; source: synthetic peptide, bought: NovoProLabs
B6: Saccharomyces cerevisiae clathrin heavy chain N-terminal domain (ScChc-NTD, 1-369) (domain or fragment, UniProt P22137 1-369, looked up)
chain: T1 sequence (P22137 1-369)
notes: Clathrin heavy chain N-terminal domain, Saccharomyces cerevisiae, residues 1-369; pETM-30 vector with a His-GST tag and a TEV cleavage site; also called WT NTD; source: E. coli BL21 (DE3), purified (Ni-NTA, TEV cleavage, reverse Ni-NTA, SEC)

In data set [1] the target is T1, ScChc-NTD. As to the kind of experiment: Native MS titration of Ent5.1, 1.75 µM protein in 200 mM NH4AcO pH 9.0. It is filed as binding. To be noted: global non-linear square fitting of the five measured fractions, four independent sites with the same affinity; read-out: microscopic KD. As to the method:
ScChc-NTD stocks were doubly buffer-exchanged into a 200 mM NH4AcO, pH 9.0 buffered solution by two subsequent runs on P6 biospins (BioRad); the protein concentration was determined photometrically (ε280 nm = 26,930 M^−1cm^−1) and the protein was diluted into 20 µl aliquots. Final samples contained 1.75 µM protein. Samples for competition experiments were prepared similarly for constant (20 µM) Ent1 and varying (0, 5, 10, 15, 20, 25, 30 and 50 µM) Ent2 concentrations and vice versa. Mass measurements. Samples were placed into gold-coated capillaries and after ionization by nano-electrospraying mass-measured in a QE-UHMR orbitrap mass spectrometer (Thermo Fisher Scientific) as follows: 1. establishment of a (“wet”) spray using a capillary voltage of 1.10-1.15 kV but with the syringe locked as to guarantee a relatively high backing pressure. 2. […] By doing so, success in the sense of as least as possible unspecific clusters could be easily monitored by spectrum appearance and distinct downward steps of the total ion current (TIC). […]
The processed output of the native MS interaction data consists of the relative fractions of CHC bound to different numbers of peptides. In this case, we detected CHC bound to up to four peptides. […]
To average the measured fractions related to similar free ligand concentrations, we used log-spaced intervals with base 1.1 starting at 0.011 μM. […]

Data set [2] has as its target B6. As to the kind of experiment: nanoDSF thermal shift; ScChc-NTD 8 µM incubated with eleven peptide concentrations (1:1 dilutions) for 15 min, heated 20-95 °C at 1 °C/min, SEC buffer (50 mM Tris pH 9, 150 mM NaCl, 0.5 mM TCEP); apparent KD from the Tm shift model, one to one binding assumed, global average over all boxes. The settings on record: both partners purified. For orientation: Differential scanning fluorimetry follows unfolding on heating by fluorescence.

In data set [3] the target is T2, Clathrin heavy chain fused to mScarlet (Chc-mScarlet), wild type (Saccharomyces cerevisiae, UniProt P22137 1-1653).
T2 construct: Clathrin heavy chain, Saccharomyces cerevisiae, the ORF of CHC1 fused in the 3' with mScarlet; also called Chc1-mScarlet; ScCHC-mScarlet; not shown: mScarlet, C-terminal, kept
As to the kind of experiment: FRET or BRET; acceptor photobleaching FRET in living yeast cells at endocytic patches stalled with Latrunculin A, donor mNeonGreen on Ent1/Ent2, acceptor mScarlet on Chc, 21 °C; trimmed mean FRET efficiency. To be noted: partners not purified.

For data set [4], the target named is T3, Chc-mScarlet Arrestin box mutant (Q195A, I197T, K251E) (Saccharomyces cerevisiae, UniProt P22137 1-1653, Q195A | I197T | K251E).
T3 construct: Clathrin heavy chain, Saccharomyces cerevisiae, the ORF of CHC1 fused in the 3' with mScarlet, Arrestin box mutant; also called Arr mutant; source: S. cerevisiae MK100, mutated plasmid pRS315-5'UTR CHC-mScarlet, endogenous CHC1 knocked out, in living cells; not shown: mScarlet, C-terminal, kept
The data set is described as above. The settings on record: partners not purified.

Data set [5] addresses T4, Chc-mScarlet Clathrin and Arrestin box mutant (Cla+Arr) (Saccharomyces cerevisiae, UniProt P22137 1-1653, K63E | I87D | Q89A | K98E | Q195A | I197T | K251E).
T4 construct: Clathrin heavy chain, Saccharomyces cerevisiae, the ORF of CHC1 fused in the 3' with mScarlet, Clathrin and Arrestin box mutant; source: S. cerevisiae MK100, mutated plasmid pRS315-5'UTR CHC-mScarlet, endogenous CHC1 knocked out, in living cells; not shown: mScarlet, C-terminal, kept
Described as above. The settings on record: partners not purified.

Data set [6] concerns the target B6. As to the kind of experiment: native MS; ScChc-NTD 1.75 µM in 200 mM NH4AcO pH 9.0, Ent5.1 peptide up to 100 µM. To be noted: both partners purified.
Data set [7] concerns the molecule itself. As to the kind of experiment: crystal structure; sitting drop; NTD incubated with excess peptide (between 23 and 40 fold) for 15 min at room temperature (21 °C) before setting up plates.

On to `CC[C@H](C)[C@H](N)C(=O)N1CCC[C@H]1C(=O)N[C@@H](CC(=O)O)C(=O)N[C@@H](CC(C)C)C(=O)N[C@H](C(=O)N[C@@H](CC(=O)O)C(=O)N[C@@H](CC(C)C)C(=O)N[C@@H](CC(=O)O)C(=O)N[C@@H](CC(=O)O)C(=O)O)[C@@H](C)CC` (single isomer, unassigned) [Ent5.1], for which the Kd in data set [1] was determined as 39.1 µM.
Take B1: the Kd in data set [2] is ~245 µM.
Still for that read-out and setting: with B2 the figure was ~598 µM.
Regarding B3, the values for the FRET efficiency in data set [3], in data set [4] and in data set [5] were 9.02%, 6.7% and 6.1%, respectively.
With B4, the Kd in data set [2] was ~311 µM.
Broadly, the stoichiometry N is the number of molecules, sites or subunits per partner or assembly. Turning to B5, the “stoichiometry N” value in data set [6] was found to be 3. In data set [2], the Kd was ~34 µM.
For the molecule B6, the binding result in data set [7] was “binds”.
